The target of series [1] is T1, mjCgi121 (Methanocaldococcus jannaschii, UniProt Q57646 1-145).
T1 sequence: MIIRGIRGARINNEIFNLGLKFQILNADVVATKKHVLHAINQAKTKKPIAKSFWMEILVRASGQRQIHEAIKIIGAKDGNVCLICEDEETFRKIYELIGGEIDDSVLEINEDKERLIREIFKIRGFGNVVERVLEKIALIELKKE
Nature of the series: competition; displacement of 32P-tRNA, filter binding, 5 uM protein; 20 mM HEPES pH 7.5, 100 mM NaCl, 2 mM DTT; filter binding 50 nM 32P-tRNA, 1 h, room temperature; FP 50 nM 647-CCA; NMR 25 C with 10% D2O. The following applies: protein: recombinant; tags: GST removed by TEV; single strand.

In series [2] the target is T2, mjKae1 (Methanocaldococcus jannaschii, UniProt Q58530 1-332).
T2 sequence: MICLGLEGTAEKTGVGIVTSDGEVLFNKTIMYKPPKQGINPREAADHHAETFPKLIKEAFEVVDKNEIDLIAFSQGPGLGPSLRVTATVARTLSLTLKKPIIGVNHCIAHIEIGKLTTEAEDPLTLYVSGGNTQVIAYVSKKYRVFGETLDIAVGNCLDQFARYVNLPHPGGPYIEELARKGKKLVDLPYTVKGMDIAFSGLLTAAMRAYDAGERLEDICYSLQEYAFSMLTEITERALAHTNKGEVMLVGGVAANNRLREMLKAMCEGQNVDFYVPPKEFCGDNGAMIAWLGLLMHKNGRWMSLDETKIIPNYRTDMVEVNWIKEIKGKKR
Description: fluorescence polarization; 20 mM HEPES pH 7.5, 100 mM NaCl, 2 mM DTT; filter binding 50 nM 32P-tRNA, 1 h, room temperature; FP 50 nM 647-CCA; NMR 25 C with 10% D2O. The following applies: protein: recombinant; tags: GST removed by TEV; label: 5' Alexa-647; single strand.

In series [3] the target is scQri7 (Saccharomyces cerevisiae, UniProt P43122 30-407). The description is as above. Particulars: protein: recombinant; tags: His6 removed by TEV; label: 5' Alexa-647; single strand.
Sequence of scQri7 (P43122 30-407): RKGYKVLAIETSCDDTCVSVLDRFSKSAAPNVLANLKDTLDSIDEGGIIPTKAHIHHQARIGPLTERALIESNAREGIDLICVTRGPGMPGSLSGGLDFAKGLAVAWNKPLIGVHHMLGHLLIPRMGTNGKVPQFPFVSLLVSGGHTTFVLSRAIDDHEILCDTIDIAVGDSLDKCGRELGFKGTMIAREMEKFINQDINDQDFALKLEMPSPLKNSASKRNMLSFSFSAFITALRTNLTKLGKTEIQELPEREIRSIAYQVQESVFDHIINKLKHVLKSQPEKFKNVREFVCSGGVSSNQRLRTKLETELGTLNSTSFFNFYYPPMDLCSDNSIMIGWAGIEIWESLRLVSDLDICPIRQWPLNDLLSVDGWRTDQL
The target of series [4] is T1, mjCgi121. The description is as above. Particulars: protein: recombinant; tags: GST removed by TEV; label: 5' Alexa-647; single strand.
Series [5] addresses TPRKB;PRPK;OSGEP;LAGE3 (Homo sapiens;Homo sapiens;Homo …, UniProt Q9Y3C4;Q96S44;Q9NPF4;Q14657 1-175;1-253;1-335;1-143, |||). The series is described as above. The following applies: protein: recombinant;recombinant;recombinant;recombinant; tags: GST removed by TEV;GST-His6 removed by TEV;;His; copies: 1;1;1;1; label: 5' Alexa-647; single strand.
Series [6] addresses TPRKB;PRPK (Homo sapiens;Homo sapiens, UniProt Q9Y3C4;Q96S44 1-175;1-253, |). The description is as above. Particulars: protein: recombinant;recombinant; tags: GST removed by TEV;GST-His6 removed by TEV; copies: 1;1; label: 5' Alexa-647; single strand.
Series [7] has as its target TPRKB (Homo sapiens, UniProt Q9Y3C4 1-175). The description is as above. Particulars: protein: recombinant; tags: GST removed by TEV; label: 5' Alexa-647; single strand.
Series [8] concerns the target T3, mjCgi121;mjBud32 (Methanocaldococcus …, UniProt Q57646;Q58530 1-145;333-535, |).
T3 sequence 1: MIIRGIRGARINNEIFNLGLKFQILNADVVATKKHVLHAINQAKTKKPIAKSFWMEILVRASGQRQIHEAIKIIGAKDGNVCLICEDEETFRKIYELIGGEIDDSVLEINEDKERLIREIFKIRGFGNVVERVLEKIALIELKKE
T3 sequence 2: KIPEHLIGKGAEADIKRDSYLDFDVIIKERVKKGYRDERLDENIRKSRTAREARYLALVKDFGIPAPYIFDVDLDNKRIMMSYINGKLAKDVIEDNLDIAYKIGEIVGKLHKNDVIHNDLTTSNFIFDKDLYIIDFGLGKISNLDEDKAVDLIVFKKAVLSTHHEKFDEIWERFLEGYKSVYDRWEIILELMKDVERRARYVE
The description is as above. Particulars: protein: recombinant;recombinant; tags: GST removed by TEV;His6 removed by TEV; copies: 1;1; label: 5' Alexa-647; single strand.

In series [9] the target is T4, mjBud32 (Methanocaldococcus jannaschii, UniProt Q58530 333-535).
T4 sequence: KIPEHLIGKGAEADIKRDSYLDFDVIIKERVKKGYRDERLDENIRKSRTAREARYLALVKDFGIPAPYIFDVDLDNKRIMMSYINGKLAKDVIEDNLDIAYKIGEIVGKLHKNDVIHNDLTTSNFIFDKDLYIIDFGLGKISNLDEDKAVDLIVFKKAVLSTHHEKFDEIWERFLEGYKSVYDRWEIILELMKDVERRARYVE
The description is as above. Particulars: protein: recombinant; tags: His6 removed by TEV; label: 5' Alexa-647; single strand.

Series [10] deals with T5, mjCgi121;mjBud32;mjKae1 (Methanocaldococcus …, UniProt Q57646;Q58530;Q58530 1-145;333-535;1-332, ||).
T5 sequence 1: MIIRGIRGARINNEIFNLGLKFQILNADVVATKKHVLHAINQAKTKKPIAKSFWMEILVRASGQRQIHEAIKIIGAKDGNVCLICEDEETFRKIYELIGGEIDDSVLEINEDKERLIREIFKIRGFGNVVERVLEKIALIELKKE
T5 sequence 2: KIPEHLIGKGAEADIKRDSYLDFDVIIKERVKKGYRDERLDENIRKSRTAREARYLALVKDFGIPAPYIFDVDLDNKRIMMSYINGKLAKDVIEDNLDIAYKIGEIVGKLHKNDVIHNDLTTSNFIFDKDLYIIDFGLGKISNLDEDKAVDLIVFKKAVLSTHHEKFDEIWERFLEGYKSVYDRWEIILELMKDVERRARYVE
T5 sequence 3: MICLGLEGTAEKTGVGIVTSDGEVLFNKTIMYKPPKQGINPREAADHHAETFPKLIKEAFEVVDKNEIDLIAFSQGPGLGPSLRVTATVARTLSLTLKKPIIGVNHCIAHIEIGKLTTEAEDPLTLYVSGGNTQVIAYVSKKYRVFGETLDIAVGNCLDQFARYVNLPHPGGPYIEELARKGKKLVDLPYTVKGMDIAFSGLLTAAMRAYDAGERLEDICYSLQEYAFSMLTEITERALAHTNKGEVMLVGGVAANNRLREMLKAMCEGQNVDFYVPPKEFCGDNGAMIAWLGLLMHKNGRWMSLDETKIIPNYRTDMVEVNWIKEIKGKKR
The series is described as above. The following applies: protein: recombinant;recombinant;recombinant; tags: GST removed by TEV;His6 removed by TEV;GST removed by TEV; copies: 1;1;1; label: 5' Alexa-647; single strand.

In the case of CCCGCCA (ssRNA) [CCA-oligo], the binding result in series [1] is listed as “binds”.
What is called Kd is the free concentration of one partner at which half of the binding sites on the other are occupied at equilibrium, for simple one-to-one binding. CCGCCA (ssRNA) [647-CCA]: the binding result in series [2], in series [3] and in series [9] was “no binding” throughout. Also, the Kd in series [4] came to 730 nM; in [5], 4300 nM; in series [6] it was 450 nM; in series [7], 28000 nM; in series [8], 229 nM; in [10], 153 nM.
Take ACCGCCC (ssRNA) [inverted oligo]: the binding result in series [1] is on record as “no binding”.

(Values after PMC7718258, “A substrate binding model for the KEOPS tRNA modifying complex”.)
